Substrate in the data set: O=C(/C=C/c1ccc(O)c(O)c1)O[C@@H]1CC(C(=O)O)=C[C@@H](O)[C@H]1O
Briefly: HPLC-MS of caffeic acid formed, Michaelis-Menten fit. The class given is biochemical, Larix kaempferi. The settings on record: 100 mM NaPO4 buffer pH 6.0, 500 μM dithiothreitol, 0–320 μM substrate, 1 μg enzyme in 100 μL, temperature of kinetics not given.

B1: LkCSE (Larix kaempferi) (protein)
chain: MSAVEKPAAPPNFWGEMPEEEYYASQGVKNHQERFETPHGILFTQSWIPIEGPVKGIVCMTHGYGSDTGWLFQKISITYAQWGYAVFGADLLGHGRSDGLRCYMGDMEKIAAASLFFFKAMRDSEPYKGLPAFLFGESMGGATTLLMYFQDPDGWSGLIFSAPLFVMPEPMKPSWWRLTAYGLLFGLADTWAVMPDNKMVKKAIKDPEKLKIIASNPRRYTGPPRVGTMRELCRICAFFQENFEKVTIPFLTCHGTSDEVTAPQSSTDLYEKAKSEDKTLKLYDDMYHSLIQGEPDENANQVLADMREWLDARASRTSS
As to B1, the Km came to 82.08 µM.

The term Km denotes the substrate concentration at which the rate is half of its maximum.

Values taken from publication PMC6929169, “Functional Characteristics of Caffeoyl Shikimate Esterase in Larix Kaempferi and Monolignol Biosynthesis in Gymnosperms” (International Journal of Molecular Sciences, 2019).
